{
  "source": "paper PMC12712053",
  "key": {"[1]": {"target": "human Mre11 core (HsMre11c) (human)", "experiment": "native gel or EMSA"}, "[2]": {"target": "human Mre11 core (HsMre11c) (human)", "experiment": "SEC"}},
  "data": [
    {"substance": "human Mre11 core (HsMre11c) (domain or fragment)", "values": [
      {"measurement": "stoichiometry N", "setting": "[1]", "result": 2},
      {"measurement": "stoichiometry N", "setting": "[2]", "result": 2}
    ]}
  ]
}
